Assay [1] deals with T1, receptor for epidermic growth factor (EGF-R) on Capan-1 and A431 cells (human (human cell line Capan-1), UniProt P00533 25-1210).
T1 construct: whole, on cells; both are called EGF receptors; also called EGF receptor; receptor of EGF
The assay can be described thus: competition with 125I-EGF on Capan-1 cells, two-site fit (Graphpad Inplot4); low affinity site. On the procedure:
(§1) From the previous adjustment, the value of $IC50$ for the two binding sites and the percentage of each type of binding sites was determined.

The target in assay [2] is T1, receptor for epidermic growth factor …. The assay is described as follows: competition with 125I-EGF on Capan-1 cells, two-site fit (Graphpad Inplot4); high affinity site. On the procedure:
as §1

Positions of bridges follow the written chain, without caps; N, C: chain ends. No end group written: not given here.

B1: potato carboxypeptidase inhibitor, isoform IIa, recombinant (other)
chain: EQHADPICNKPCKTHDDCSGAWFCQACWNSARTCGPYVG
modifications: disulfide 12-27, 18-34, 8-24
notes: Secreted from E. coli MC1061 (pIMAM3, OmpA signal peptide directly before the first codon of native PCI); also called PCI; rPCI
For B1, the IC50 (in general, the concentration needed to halve the response being measured) in assay [1] is 579 µM; in assay [2], 0.014 nM.

Values taken from patent US6379959 (UNIVERSITAT AUTONOMA DE BARCELONA, dated 2002).
